The source of these data is article PMC10516627 (Nucleic Acids Research, 2023).

The test has as its target GST-RNF168 (human, UniProt Q8IYW5 1-571). Nature of the test: pull-down.

Sequence of GST-RNF168 (Q8IYW5 whole entry): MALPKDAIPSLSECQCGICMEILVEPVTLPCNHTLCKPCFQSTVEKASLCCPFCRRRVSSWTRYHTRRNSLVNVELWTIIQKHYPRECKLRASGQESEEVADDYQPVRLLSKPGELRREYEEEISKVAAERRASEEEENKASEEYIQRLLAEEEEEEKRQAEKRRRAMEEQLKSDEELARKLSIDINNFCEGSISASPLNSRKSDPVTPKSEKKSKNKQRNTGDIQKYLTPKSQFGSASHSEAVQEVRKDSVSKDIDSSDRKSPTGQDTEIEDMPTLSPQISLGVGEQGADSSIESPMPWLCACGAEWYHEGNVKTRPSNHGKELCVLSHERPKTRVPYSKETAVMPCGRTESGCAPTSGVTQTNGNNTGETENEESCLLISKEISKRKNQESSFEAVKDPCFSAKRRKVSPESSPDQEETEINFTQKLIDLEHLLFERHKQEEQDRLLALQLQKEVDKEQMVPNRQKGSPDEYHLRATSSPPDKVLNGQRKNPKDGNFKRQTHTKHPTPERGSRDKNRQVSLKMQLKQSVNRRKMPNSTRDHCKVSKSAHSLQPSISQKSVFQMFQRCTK

B1: His-HDAC6 DAC1 domain (1-440 aa) (domain or fragment, human, UniProt Q9UBN7 1-440, looked up)
chain: MTSTGQDSTTTRQRRSRQNPQSPPQDSSVTSKRNIKKGAVPRSIPNLAEVKKKGKMKKLGQAMEEDLIVGLQGMDLNLEAEALAGTGLVLDEQLNEFHCLWDDSFPEGPERLHAIKEQLIQEGLLDRCVSFQARFAEKEELMLVHSLEYIDLMETTQYMNEGELRVLADTYDSVYLHPNSYSCACLASGSVLRLVDAVLGAEIRNGMAIIRPPGHHAQHSLMDGYCMFNHVAVAARYAQQKHRIRRVLIVDWDVHHGQGTQFTFDQDPSVLYFSIHRYEQGRFWPHLKASNWSTTGFGQGQGYTINVPWNQVGMRDADYIAAFLHVLLPVALEFQPQLVLVAAGFDALQGDPKGEMAATPAGFAQLTHLLMGLAGGKLILSLEGGYNLRALAEGVSASLHTLLGDPCPMLESPGAPCRSAQASVSCALEALEPFWEVLVR
Turning to B1, the binding result is on record as “binds”.

B2: His-HDAC6 DAC2 domain (441-835 aa) (domain or fragment, human, UniProt Q9UBN7 441-835, looked up)
chain: STETVERDNMEEDNVEESEEEGPWEPPVLPILTWPVLQSRTGLVYDQNMMNHCNLWDSHHPEVPQRILRIMCRLEELGLAGRCLTLTPRPATEAELLTCHSAEYVGHLRATEKMKTRELHRESSNFDSIYICPSTFACAQLATGAACRLVEAVLSGEVLNGAAVVRPPGHHAEQDAACGFCFFNSVAVAARHAQTISGHALRILIVDWDVHHGNGTQHMFEDDPSVLYVSLHRYDHGTFFPMGDEGASSQIGRAAGTGFTVNVAWNGPRMGDADYLAAWHRLVLPIAYEFNPELVLVSAGFDAARGDPLGGCQVSPEGYAHLTHLLMGLASGRIILILEGGYNLTSISESMAACTRSLLGDPPPLLTLPRPPLSGALASITETIQVHRRYWRSLR
On to B2, for which the binding result is “binds”.
